Assay: soluble on expression in E. coli; label from the status in PepcDB or PDB records
For “MSLSEELSFSAMVKAELALLTPELPCCRRMELAGLVRALGRLELSGRGRFALTLSTDSAPVSRKVIRLLKSVSPVRYEVMVMRRRKLRKNLVYRVHIPHQPGVAELLQLAGFIDEAGRPADWVEPPELANDHCRRAFLRGTFLGSGWVAGPEKQHHLEITTTATEAADALGQMLFRGGIAARMVARRESLVLYIKEADQIIRFLGLVGAHQALLRYEEVRVIKEMKNQVNRQVNAEVANMTKQADAAARQVEAIKRLEAAGALERVSPPLRELAGLRLAYPDASLKELGELCRPPVSKSGAAHRMRQLMALAESLEEGHHHHHH”, the “soluble on expression in E. coli” value was “soluble”. With “MSLSEILTIGEPIVTFASKEPDVSLRDALEFHKILGGAELNVAIGAQRLGHSVDYISQVGEEPLGDYVIKTIKEHHVGTRYITRDADYWTAFQLKDRVTQGNPTTQNYRRGSAAAHLTPAVVDQIDLTDVRAAHMSGIFPAISATAEAAFRTLLKRLEAANILTTFDPNLRPTLWPSRGKMVTTLNELAGHAEIVLPGVEEGEILMGSTDPEKIADFYLRGARTKVVIVKVGPAGAYVKQQSGESYTVTGFKVAQVADTVGAGDGFAMGVLTALLEHKSLRSAVMRGNAVGALQVQTYGDNDGYPTPAGLQAFYQQEGVVEEGHHHHHH” the “soluble on expression in E. coli” value was “not soluble”. In the case of “MSLSEIVVSKFGGTSVADFDAMNRSADIVLSDANVRLVVLSASAGITNLLVALAEGLEPCERFEKLDAIRNIQFAILERLRYPNVIREEIERLLENITVLAEAAALATSPALTDELVSHGELMSTLLFVEILRERDVQAQWFDVRKVMRTNDRFGRAEPDIAALAELAALQLLPRLNEGLVITQGFIGSENKGRTTTLGRGGSDYTAALLAEALHASRVDIWTDVPGIYTTDPRVVSAAKRIDEIAFAEAAEMATFGAKVLHPATLLPAVRSDIPVFVGSSKDPRAGGTLVCNKTENPPLFRALALRRNQTLLTLHSLNMLHSRGFLAEVFGILARHNISVDLITTSEVSVALTLDTTGSTSTGDTLLTQSLLMELSALCRVEVEEGLALVALIGNDLSKACAVGKEVFGVLEPFNIRMICYGASSHNLCFLVPGEDAEQVVQKLHSNLFEEGHHHHHH”, the “soluble on expression in E. coli” value is reported as “soluble”. With “MSLSERIIVTYQVAAAPAEIAARAEALAIEQSVECPLAAVTEQQIRDEIVGRVEAIAPIGETRFSVRVSLASATAPAEPGQLLNMLFGNSSIQPDVTLADVELPPAYPAAFGGPKLGISGLRAKLGAPRRALTGSALKPQGLAPEALAGLAHRLALGGVDLIKDDHGIADQAFSPFAARVPAVARAMREACAVRGAAMLYAPHVSGSLDDMRRQLDIVRREGLSVVMLMPMIVGLANFHLIAKEAEGLIVLAHPSLAGAQRIAPDLLLGKLFRLLGADATIFPHYGGRFAYTPETCRALADAARRDWHDLKPCLPVPAGGIAIDRIKELLAFYGTDVMLLIGGSLLAAGEQLTEHAARFTAEVASHGQEGHHHHHH” the “soluble on expression in E. coli” value was “soluble”. In the case of “MSLSETLTLSDAKSIIENQIEELAKRNKEPEWMTKIRYKALEEFMKAPLNDPVIDEETLLNFIAKPEIEGIPEKVESLDDLPPEMKDLLDRLGINEVEQKYIAGLAVQTDTGVIYNQFLQEWAKKGLIVLPTEEAVRRYPDIMKEHFLKLFKAGESKLTAYHIAIWNGGIFLYVKENLKVPFPLHLFFLIQESSLAQAPHITIIAEKNSEVHLIEGCTAPILVRHSLHLDMTEAYLHENAKVRLTVLQNWPEYVHTRPMTRAKVGRNAEFINTTVSLGAGKSNIANPKYWVGENGYVELNGVILGQKDWYIDLGGEMHLQGEGGRGINASKSVIMDESTVITRGKIVAEAKKTKGHISCDALLLSDKARMETYPGLVSLVDEAELSHEAAIGKIKEEELFYLMSRGLSEEKATQLIVKGFVEPMLKDIPIEFVVEIKKIIELAVSGGFEGHHHHHH”, the “soluble on expression in E. coli” value is reported as “soluble”. For “MSLSETSEHPVDGDELLVRTVLSNQALKRIFTHRTDSMTECYQVEKTFLQSEQSLLIGHQLHPTPKSRQGIDEDEELLFTPERKGSFQLHYFRAACELVDEKSALADSASELIKHDLLHDPNVQDSFKASYCQADDYVLLPVHPLQARKLLGKKEIADLIQAGKLSYLGPQGRAFYPTSSLRTVYHPEAEYMYKFSIPVKITNSLRVNKRKELARGVEVSELLKNGLYDQLKAEHPAFNIVQDPAYITLSLDSEESGLETVIRENPFRQGGEERTTLLAALCQDSIQGNSHLTNLMVELAKQKKISVTEASKWWFSRYLNVSLRPLYWLYATHGIALEAHQQNSIIKLDAEGLPSLFYYRDNQGYYFMQSKAETLKQFVPTLNEQSDTICSDAVAEERFRYYVFFNHLFGLVNAFGTNRLIDEEQLLHILREELTLLRQQFGDPTNLVNSLLHEEMLPCKANLLTRIHDMDELEGSLATQSVYVPVPNPLVVMAGELHEGHHHHHH”, the “soluble on expression in E. coli” value was “soluble”. With “MSLSEVSLRPAKISTVLPGSLGEEMGFEPGDAIVRINGQAPRDLIDYQFLCADDYLELDVLDSQGELHELAVEKEFDQDLGLGFETALFDGLIQCNNRCPFCFIDQQPPGKRESLYYKDDDYRLSFLYGSYLTLTNLSAKEWQRIEQLRLSPLYVSIHATEASVRERLLKNHRAGQILDQLAWFQARRLQIHAQVVVCPGVNDGKHLEQTLRDLAQFHQGETPAVISVAVVPVGLTRFRPQEDELSPVGQAKATEVIAQVQALQKEFAQQLGGNFVWLADEWFLIARQPLPPESHYEDYPQIGNGVGSIRQFIKEFQQQAAEFLPPAIAEAKTLTWVVGNAVEQAFELLVEQLNQVKGLTVNLAPLNSDYWGQEITVTGLLTGQDLIAKLAGRDLGDGILLPALMLKHDDTRFLDDLRVADVAQKLGTTIYPVADVASLLEHCVQPMAVSREGHHHHHH” the “soluble on expression in E. coli” value was “soluble”. With “MSLSFHEIRFPASLSFGSVGGPERRTDVVTLANGFEERNTPWAHSRRRYDAGMGMRSLDDIEALIAFFEARQGQIFGFRWKDWSDYKSARPTAEVDFRDQVIGLGDGVQTGFQLLKSYRSGDSIYPRPIAKPVDGTVRMGLGQEEIKEGIDFTLDPTTGMVVLSHPPENGIEVVAGFEFDVPVRFDTDRILTSVASFQAGDVPNVPVVEVRAEGHHHHHH” the “soluble on expression in E. coli” value was “soluble”. For “MSLSGDLIDGLRDLNVLVVQPHDGSTEELLKQIGRIGCNATAVWPFPQSIPDGTDMIFMEITHPLDANAVRLLGVESVDAPTVVGIIAYENPSVLKGIIDLKIDTVLAKPIRPFGVLSHMLMARSVCLARRRDEEELQKLRRKIQAIQKIADAKFILMRHHSINETEAYKIIRSQAMAKRTSTLEIAQSVINAESILSGMAPHDLTARMQSQTEGHHHHHH”, the “soluble on expression in E. coli” value was “not soluble”. With “MSLSGIYEIAILGRATWQLHSLNNEGTVGNVTEPRSVRIIDPNTKKAVTTDGISGEMLKHIHTEIMWTLDDKNNLCDACKVLNPEKFNFAIKSKKATPKDVEDALKQALNTCDICDVQGFLLERPTASRKSTVEFGWALGIPEVYRDIHTHARHALGEKGKREKTEESEEEVGGVSTQMVYHRPTRSGVYAIISVFQPWRIGLNEAKQDKYTYDANDNARERRYQLALKAYPLLFARPEGAMTTTRLPHVEDFSGVIVYSTKPIPVPIISPLKSNYVDEVKTIVENIDDSLKVAEFNGIAEFAMKIGELIKNKPYKMEFEGHHHHHH” the “soluble on expression in E. coli” value was “soluble”. For “MSLSGPRNQILVSITDAPKIHILDPSTEYCVGDYVAYQLNGVAPFMIKYEFNGIPLKSKERSSQFVRLASEPGIISITSLQDSSSQCIVDFTNPKLKSEFDDLSLNIHPIPSVTVSQGNYVTEDIREGDQAEVIFSFEGTPPFSLTYVRTEETDGKHGKRRSQVVETHKVTDIYSHEYKVITSLQGTYEAIEITDAYCFAKNDLFFNNEGHHHHHH”, the “soluble on expression in E. coli” value was “soluble”. For “MSLSGVVERITFVNEENGFSVVKIKSKGFSDLVTAVGNMASVNVGAVVSLRGEWKYDSKFGRQFNVYHYEESIPATVAGIEKYLGSGLIKGIGPVNAKRIVKVFKEDTIRVIEEEPDRLIEVPGIGKKRVEMIKEAWQNQKEIKNVMLFLQSHGVSTAFAVKIFKTYGSDSIKIVKENPYRLADDIWGIGFKTADKIAQNMGYDKESYARIRSGIMYALNEFANDGHCFAKKDELVNKASELLGVELEKVETAIQHMLEEKSVIMEEDDAVYLPPFYYSEVGVARRIREIIETKSMYSFYNFDGIIEDLQRECNIQYDEVQIEAIRKAVVSKFMVLTGGPGTGKTTTTLAIIKVFQKLGATVLLAAPTGRAAKRMSEATGMEAKTIHRLLEYSPQDGYKKNDDNPLECDVLIIDETSMIDIILMYNLLKAVSNNTVVILVGDVDQLASVGAGNVLKDIIESGMVTVVRLMRIFRQAMGSAIVTNAHKINHGEYPVLKGGKNSNFFFIEEEDPEKIVELVRELCSKRLPGYYKINPLNDIQVLCPMQKGVVGAQNLNTVLQETLNPCDISIKYGGTIYKLNDRVMQIKNNYDKNVFNGDMGIITDIDQEEKTVRIKFDDAEVEYDVTELDEVTLAYAVTVHKSQGSEYNFVVAPFTMQHYMMLQRNLLYTCVTRAKKVLVLIGSKKALGCCIRNSRSMDRNTKLAQRLKADTEGHHHHHH”, the “soluble on expression in E. coli” value was “soluble”. In the case of “MSLSHMANEMLLDIDGMDFVEDEDMGAEGELQFSFDPVSNAPMVSFPSTQQPDLEKLRFKFAPVLSRSFAFNGGSRTGTLYGVQVPYVDNSKEFSQYAAKLFEVYKSLGADKQFAVPTIGLINHTSTLEHNQTVNLALEAIVSELELFIESLKYSGRQQRLVDLEECLSILNCLKTVQFTLDSEEENSRAKFIDSLISWVNRTDGEPSEAVIAKVLGDGKQTPILENPYFWRLLCQLIIRGLFDQAVAAIEKSELLSYLADKCSATHTMVQDMVNLLQGYPRELEPVYREWKDLVLQLHLNWSQSEHKISIELASSLEDCLLIMCGNKSKIIYYSKTWYECYCGLMLYYIPSLQLSEEYLQLVLKEHPLDVTSPWEQACVSIITGKIYSILPVLDSLDSCTAAFTAAICEAKGLLENDLLDDGGLEVSNTGDEMFGLGNTMASYLLNQFALSIVTYEDKNLWAVAIGIIYLTPNYSDAAKRMMIAELLPHYPFQTNDDIEWMLTICAKWKLPQIARTIYRVLGQEALYLNNIIEAISNFSKAGEFEWVKHYSWMIFEASILQGAPLEDEVVNSIVTGEYESAIPKELVEVMVTPAMKQSLSPYAVLFNFFRATEDGRWAEALKLLLSLIEFTYLPPQYLILLIGRFLYPLFLQDESKMFKEQDVLRVIKALEQFHDRPDEITTAMYKELLVKVDTLPKDPLNLINAIRTKLSLKLCHQFMEGHHHHHH”, the “soluble on expression in E. coli” value is reported as “not soluble”. With “MSLSIFSHFQERFEATRQEEYSLQEYLDLCKQDKTAYASAAERLLMAIGEPELLDTSVDSRLSRIFSNKVIRRYPAFADFHGMEECIDQIVAFFRHAAQGLEEKKQILYLLGPVGGGKSSLAEKLKQLMEKVPFYAIKGSPVFESPLGLFNPDEDGAILEEDYGIPRRYLRSIMSPWATKRLNEFGGDISQFRVVKLYPSILNQIAIAKTEPGDENNQDISALVGKVDIRKLEEYPQNDADAYSYSGALCRANQGLMEFVEMFKAPIKVLHPLLTATQEGNYNSTEGLGALPYSGIILAHSNESEWHSFRNNKNNEAFIDRIYIVKVPYCLRVADEIKIYDKLLVNSSLAHAHCAPDTLKMLSQFSVLSRLKEPENSNIYSKMRVYDGENLKDTDPKAKSIQEYRDSAGVDEGMAGLSTRFAFKILSKVFNFDPHEVAANPVHLLYVLEQQIEQEQFQPETRERYLRFIKEYLAPRYVEFIGKEIQTAYLESYSEYGQNIFDRYVLYADFWIQDQEYRDPETGEILNRAALNEELEKIEKPAGISNPKDFRNEIVNFVLRARAGNNGKNPSWLSYEKLRVVIEKKMFSNTEDLLPVISFNAKASKEDQQKHNDFVKRMVERGYTEKQVRLLSEWYMRVRKSQEGHHHHHH” the “soluble on expression in E. coli” value was “soluble”. In the case of “MSLSIKNIKRIITAWKPSTFETYKKTFEKYGGSVNMHPDVVSYFMIHHDWKFDFFHYEKDGDIKGSYFLCNGKQIGIMARRSYPLSSDEVLIPFSPHARCFFPDKTNKLSIINKQNIINATWKIARKKQNCIIKESFSPKFEKTRRNEIQRFIRNGGEIKCISQLSDKEISSSYISLFHSRFGGTLPCYEYDNLLMFISHLRELMFGHVLFWDNKPCAIDIVLKSESSCNVYYDVPNGAVLNDENCMKLSPGSVLMWLNIDKARRYCQDNNKKMIYSIGAFRPEWKYKLLWSVPCKVGKCLCEGHHHHHH”, the “soluble on expression in E. coli” value is reported as “soluble”.
